Test results: patent US20220127354A1 (Amgen, published 2022)

Key:
Test in all cases: flow cytometry, transfected 293T cells
[1] = target: T1, muCDH19(44-461)::huCDH19(464-772) with Flag tag (construct H, Hu EC5) (human/mouse chimera)
T1 construct: leader left out; the entry starts at residue 44; also called C137915
T1 chain: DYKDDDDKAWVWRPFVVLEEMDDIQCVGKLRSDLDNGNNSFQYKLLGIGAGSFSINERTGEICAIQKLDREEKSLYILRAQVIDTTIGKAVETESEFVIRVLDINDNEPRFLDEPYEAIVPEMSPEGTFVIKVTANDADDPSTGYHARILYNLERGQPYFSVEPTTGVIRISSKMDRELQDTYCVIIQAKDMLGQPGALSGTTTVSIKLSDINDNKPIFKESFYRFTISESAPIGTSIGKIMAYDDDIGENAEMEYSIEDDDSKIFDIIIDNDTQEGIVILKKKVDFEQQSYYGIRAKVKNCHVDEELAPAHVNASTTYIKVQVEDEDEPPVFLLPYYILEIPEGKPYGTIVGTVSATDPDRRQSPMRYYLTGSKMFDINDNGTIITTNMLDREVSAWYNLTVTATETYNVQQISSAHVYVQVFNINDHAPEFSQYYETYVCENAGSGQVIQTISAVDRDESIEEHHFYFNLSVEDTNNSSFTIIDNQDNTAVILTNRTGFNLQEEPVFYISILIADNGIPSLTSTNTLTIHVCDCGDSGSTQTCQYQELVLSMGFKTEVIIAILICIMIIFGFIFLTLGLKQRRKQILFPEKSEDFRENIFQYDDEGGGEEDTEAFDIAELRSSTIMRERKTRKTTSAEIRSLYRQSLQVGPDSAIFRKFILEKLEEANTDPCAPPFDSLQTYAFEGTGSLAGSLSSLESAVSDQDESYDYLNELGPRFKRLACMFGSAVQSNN
Description: (§1) The experiment included assaying the anti-CDH19 antibodies against mouse Cadherin19 to determine suitability for binning on these human/mouse chimeras.

[2] = target: T2, muCDH19(44-362)::huCDH19(365-772) with Flag tag (construct G, Hu EC4-5) (human/mouse chimera)
T2 construct: leader left out; the entry starts at residue 44; also called C137917
T2 chain: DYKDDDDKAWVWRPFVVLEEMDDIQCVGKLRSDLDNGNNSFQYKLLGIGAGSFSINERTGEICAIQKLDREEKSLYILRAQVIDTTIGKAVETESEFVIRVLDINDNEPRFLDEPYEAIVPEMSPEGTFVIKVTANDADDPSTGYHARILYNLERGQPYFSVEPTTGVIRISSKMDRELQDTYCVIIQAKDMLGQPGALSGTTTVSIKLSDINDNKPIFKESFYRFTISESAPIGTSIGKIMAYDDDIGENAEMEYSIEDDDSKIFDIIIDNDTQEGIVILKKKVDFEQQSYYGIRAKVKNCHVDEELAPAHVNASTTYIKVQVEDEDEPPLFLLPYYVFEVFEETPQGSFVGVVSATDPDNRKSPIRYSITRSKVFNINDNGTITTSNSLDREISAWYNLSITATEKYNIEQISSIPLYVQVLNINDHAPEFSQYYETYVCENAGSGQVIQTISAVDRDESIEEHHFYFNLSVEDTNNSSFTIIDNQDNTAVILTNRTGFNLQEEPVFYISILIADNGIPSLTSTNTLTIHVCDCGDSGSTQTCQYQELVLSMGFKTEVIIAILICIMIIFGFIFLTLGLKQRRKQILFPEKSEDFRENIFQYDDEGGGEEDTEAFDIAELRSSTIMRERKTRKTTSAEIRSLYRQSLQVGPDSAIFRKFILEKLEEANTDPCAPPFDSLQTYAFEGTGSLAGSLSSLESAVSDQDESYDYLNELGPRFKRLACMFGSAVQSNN
Description: as §1

[3] = target: T3, muCDH19(44-139)::huCDH19(142-249)::muCDH19(248-770) with Flag tag (construct D, Hu EC2) (human/mouse chimera)
T3 construct: leader left out; the entry starts at residue 44; also called C137913
T3 chain: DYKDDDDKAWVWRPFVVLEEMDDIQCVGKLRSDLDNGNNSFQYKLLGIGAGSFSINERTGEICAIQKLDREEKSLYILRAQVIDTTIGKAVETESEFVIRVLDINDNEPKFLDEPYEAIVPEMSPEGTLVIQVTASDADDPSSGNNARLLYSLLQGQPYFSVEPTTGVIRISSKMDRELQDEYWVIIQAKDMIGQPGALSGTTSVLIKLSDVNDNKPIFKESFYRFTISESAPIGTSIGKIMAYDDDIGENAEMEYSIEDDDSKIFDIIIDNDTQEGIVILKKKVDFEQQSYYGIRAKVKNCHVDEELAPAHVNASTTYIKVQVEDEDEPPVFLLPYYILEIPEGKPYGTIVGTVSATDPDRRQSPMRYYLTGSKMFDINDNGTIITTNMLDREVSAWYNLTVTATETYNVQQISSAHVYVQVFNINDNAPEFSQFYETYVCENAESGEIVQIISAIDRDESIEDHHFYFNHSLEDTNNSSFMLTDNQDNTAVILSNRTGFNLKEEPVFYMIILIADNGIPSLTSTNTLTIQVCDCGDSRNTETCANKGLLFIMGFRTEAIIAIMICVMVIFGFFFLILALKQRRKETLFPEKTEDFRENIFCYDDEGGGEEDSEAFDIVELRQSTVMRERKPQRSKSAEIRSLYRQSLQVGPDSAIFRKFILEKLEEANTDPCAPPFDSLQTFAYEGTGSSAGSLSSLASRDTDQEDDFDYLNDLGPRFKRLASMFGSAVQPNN
Description: as §1

Measured: binding result

B1: anti-CDH19 antibody 2G6 (Ab ID 13588) (antibody, human IgG1, lambda, V domains shown)
VH: QVQLVESGGGVVQPGRSLRLSCAASGFTFSSYGMHWVRQAPGKGLEWVAFIWYDGSNKYYADSVKDRFTISRDNSKNTLYLQMKSLRAEDTAVYYCARRAGIIGTIGYYYGMDVWGQGTTVTVSS
VL: SYELTQPPSVSVSPGQTASITCSGDRLGEKYTCWYQQRPGQSPLLVIYQDTKRPSGIPERFSGSNSGNTATLTISGTQAMDEADYYCQAWDSSTVVFGGGTKLTVLG
notes: Bin 4
binds: [1] | [2] | [3]
